The text below walks through data of patent US20150166606A1 (RA PHARMACEUTICALS, published 2015).

Bridge positions count the residues as written; N and C are the ends. Square brackets hold non-standard residues; d marks the D form. Ends that are not written are not given here. mXylyl = xylyl linker from dibromoxylene joining the two cysteines; NMeW = CN[C@@H](Cc1c[nH]c2ccccc12)C(=O)O; NMeY = CN[C@@H](Cc1ccc(O)cc1)C(=O)O; NMeT = CN[C@H](C(=O)O)[C@@H](C)O; Phg = N[C@H](C(=O)O)c1ccccc1; Tle = CC(C)(C)[C@H](N)C(=O)O; NMeS = CN[C@@H](CO)C(=O)O; NMeA = CN[C@@H](C)C(=O)O; Nva = CCC[C@H](N)C(=O)O

First the molecules themselves.
T1: Factor VIIa (Enzyme Research Laboratories) (human, UniProt P08709 61-466)
T1 sequence (looked up): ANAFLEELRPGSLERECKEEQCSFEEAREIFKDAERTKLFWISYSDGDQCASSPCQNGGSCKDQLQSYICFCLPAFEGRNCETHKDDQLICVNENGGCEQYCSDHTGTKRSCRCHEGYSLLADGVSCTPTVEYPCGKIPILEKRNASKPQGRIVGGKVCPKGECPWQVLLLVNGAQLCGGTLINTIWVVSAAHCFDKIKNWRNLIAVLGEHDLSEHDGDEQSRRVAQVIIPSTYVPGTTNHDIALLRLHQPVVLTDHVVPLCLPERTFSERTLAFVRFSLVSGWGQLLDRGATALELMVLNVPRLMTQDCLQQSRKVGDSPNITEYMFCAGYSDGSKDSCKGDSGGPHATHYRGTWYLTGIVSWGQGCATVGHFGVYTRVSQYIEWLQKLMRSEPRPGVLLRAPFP

T2: Factor XIIa (Enzyme Research Laboratories) (human, UniProt P00748 20-615, limits assumed)
T2 sequence (looked up): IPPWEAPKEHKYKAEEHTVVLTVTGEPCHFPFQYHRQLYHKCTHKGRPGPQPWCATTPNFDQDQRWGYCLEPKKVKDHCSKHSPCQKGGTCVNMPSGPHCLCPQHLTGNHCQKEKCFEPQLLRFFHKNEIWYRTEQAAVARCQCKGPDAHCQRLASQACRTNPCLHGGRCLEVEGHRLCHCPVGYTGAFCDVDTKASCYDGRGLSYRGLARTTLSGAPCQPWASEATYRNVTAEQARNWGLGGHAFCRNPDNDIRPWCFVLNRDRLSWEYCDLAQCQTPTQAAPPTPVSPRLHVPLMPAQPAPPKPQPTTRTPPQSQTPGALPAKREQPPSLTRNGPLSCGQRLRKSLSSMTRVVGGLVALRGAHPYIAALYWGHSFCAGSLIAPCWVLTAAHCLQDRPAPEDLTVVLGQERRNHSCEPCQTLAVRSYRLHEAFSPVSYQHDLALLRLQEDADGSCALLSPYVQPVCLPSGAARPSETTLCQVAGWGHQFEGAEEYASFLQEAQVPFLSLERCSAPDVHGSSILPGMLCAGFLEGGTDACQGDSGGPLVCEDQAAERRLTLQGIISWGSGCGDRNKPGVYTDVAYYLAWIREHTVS

T3: tissue kallikrein KLK13 (R&D Systems) (human, UniProt Q9UKR3 17-277, limits assumed)
T3 sequence (looked up): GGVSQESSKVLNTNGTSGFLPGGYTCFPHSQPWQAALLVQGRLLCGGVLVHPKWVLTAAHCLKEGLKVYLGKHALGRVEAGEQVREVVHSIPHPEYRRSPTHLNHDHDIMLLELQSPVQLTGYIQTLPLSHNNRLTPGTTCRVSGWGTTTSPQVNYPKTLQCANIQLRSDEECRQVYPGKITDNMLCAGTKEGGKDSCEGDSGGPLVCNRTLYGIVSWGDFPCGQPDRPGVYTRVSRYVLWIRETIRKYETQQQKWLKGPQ

Factor Xa (Enzyme Research Laboratories), sequence (P00742 41-488 limits assumed): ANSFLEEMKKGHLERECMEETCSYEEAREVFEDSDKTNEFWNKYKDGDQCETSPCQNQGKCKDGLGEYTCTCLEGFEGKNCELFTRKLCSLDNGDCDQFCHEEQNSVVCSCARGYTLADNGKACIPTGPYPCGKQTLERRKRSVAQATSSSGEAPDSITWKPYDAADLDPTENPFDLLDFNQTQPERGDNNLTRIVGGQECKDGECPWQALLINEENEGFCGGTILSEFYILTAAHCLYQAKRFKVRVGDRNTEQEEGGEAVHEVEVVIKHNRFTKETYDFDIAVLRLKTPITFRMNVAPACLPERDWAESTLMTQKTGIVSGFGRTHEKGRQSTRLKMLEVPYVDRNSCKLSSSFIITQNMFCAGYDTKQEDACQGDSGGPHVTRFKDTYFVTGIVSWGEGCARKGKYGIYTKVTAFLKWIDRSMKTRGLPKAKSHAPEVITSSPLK
Factor XIa (Enzyme Research Laboratories), sequence (P03951 19-625 limits assumed): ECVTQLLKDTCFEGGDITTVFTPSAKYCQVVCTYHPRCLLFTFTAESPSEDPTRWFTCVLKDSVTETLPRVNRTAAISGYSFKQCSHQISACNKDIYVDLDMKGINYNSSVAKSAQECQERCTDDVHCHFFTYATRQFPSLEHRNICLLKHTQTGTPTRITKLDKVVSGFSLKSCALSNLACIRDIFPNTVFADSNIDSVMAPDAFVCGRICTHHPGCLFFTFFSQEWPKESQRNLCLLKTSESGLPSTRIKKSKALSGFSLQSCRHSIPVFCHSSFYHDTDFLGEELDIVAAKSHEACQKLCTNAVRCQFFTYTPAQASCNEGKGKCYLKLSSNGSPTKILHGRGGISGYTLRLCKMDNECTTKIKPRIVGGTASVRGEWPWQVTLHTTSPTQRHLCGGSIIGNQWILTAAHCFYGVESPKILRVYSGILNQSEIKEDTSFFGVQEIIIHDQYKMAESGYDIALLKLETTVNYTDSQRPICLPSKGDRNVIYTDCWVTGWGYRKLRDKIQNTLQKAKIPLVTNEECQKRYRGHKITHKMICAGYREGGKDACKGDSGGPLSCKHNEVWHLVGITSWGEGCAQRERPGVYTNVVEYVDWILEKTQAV

One test addresses T1, Factor VIIa (Enzyme Research …). The test is described as follows: cell-based or functional assay.
As for [Nva]CEP[Phg]CR[Tle]-NH2 (linker 2-6 via mXylyl) [R2030], the “Factor VIIa IC50” value was > 100000 nM.
Regarding MCE[NMeS]ICRV-NH2 (linker 2-6 via mXylyl) [R2019], the “Factor VIIa IC50” value is > 100000 nM.
The same measure, in the same setting: under MCESICR[Tle]-NH2 (linker 2-6 via mXylyl) [R2010] stands > 100000 nM.
For MCESICRV-NH2 (linker 2-6 via mXylyl) [R2006], the “Factor VIIa IC50” value is > 100000 nM.
Same read-out and setting: then Ac-CESICRV-NH2 (linker 1-5 via mXylyl) [R2023], with > 100000 nM.

For a further test, the target named is T4, Activated human plasma kallikrein (Enzyme Research Laboratories, HPKa 1303) (human, UniProt P03952 20-638). The test is described as follows: cell-based or functional assay.
T4 sequence (P03952 20-638 limits assumed): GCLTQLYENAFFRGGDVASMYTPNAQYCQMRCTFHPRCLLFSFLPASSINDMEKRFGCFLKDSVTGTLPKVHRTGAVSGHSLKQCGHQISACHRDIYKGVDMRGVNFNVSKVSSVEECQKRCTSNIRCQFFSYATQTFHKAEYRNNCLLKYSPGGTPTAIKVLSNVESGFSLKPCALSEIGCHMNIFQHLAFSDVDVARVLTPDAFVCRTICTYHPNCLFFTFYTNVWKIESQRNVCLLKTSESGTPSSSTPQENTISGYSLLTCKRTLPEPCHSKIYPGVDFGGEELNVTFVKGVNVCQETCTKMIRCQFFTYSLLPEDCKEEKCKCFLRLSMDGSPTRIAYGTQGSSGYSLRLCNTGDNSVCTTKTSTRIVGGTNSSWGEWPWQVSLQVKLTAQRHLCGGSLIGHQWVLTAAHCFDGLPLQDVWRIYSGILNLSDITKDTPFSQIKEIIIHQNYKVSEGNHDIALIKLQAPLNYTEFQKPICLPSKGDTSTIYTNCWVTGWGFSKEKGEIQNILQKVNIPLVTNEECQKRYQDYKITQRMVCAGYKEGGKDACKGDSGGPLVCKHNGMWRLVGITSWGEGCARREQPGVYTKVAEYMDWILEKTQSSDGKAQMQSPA
Turning to [Nva]CEP[Phg]CR[Tle]-NH2 (linker 2-6 via mXylyl) [R2030], the “Human Kallikrein IC50” value was found to be 25 nM.
Same read-out and setting: then MCE[NMeS]ICRV-NH2 (linker 2-6 via mXylyl) [R2019], with 52.3 nM; and MCESICR[Tle]-NH2 (linker 2-6 via mXylyl) [R2010], with 9.9 nM; and MCES[Phg]CRV-NH2 (linker 2-6 via mXylyl) [R2012], with 8.3 nM.
On the same count and under the same terms, under MCESICRV-NH2 (linker 2-6 via mXylyl) [R2006] stands 25 nM.
Still for that read-out and setting: under Ac-CESICRV-NH2 (linker 1-5 via mXylyl) [R2023] stands 19 nM.

The target of the next test is mouse plasma kallikrein (R&D Systems) (mouse, UniProt P26262 20-638). The test is described as follows: cell-based or functional assay.
mouse plasma kallikrein (R&D Systems), sequence (P26262 20-638 limits assumed): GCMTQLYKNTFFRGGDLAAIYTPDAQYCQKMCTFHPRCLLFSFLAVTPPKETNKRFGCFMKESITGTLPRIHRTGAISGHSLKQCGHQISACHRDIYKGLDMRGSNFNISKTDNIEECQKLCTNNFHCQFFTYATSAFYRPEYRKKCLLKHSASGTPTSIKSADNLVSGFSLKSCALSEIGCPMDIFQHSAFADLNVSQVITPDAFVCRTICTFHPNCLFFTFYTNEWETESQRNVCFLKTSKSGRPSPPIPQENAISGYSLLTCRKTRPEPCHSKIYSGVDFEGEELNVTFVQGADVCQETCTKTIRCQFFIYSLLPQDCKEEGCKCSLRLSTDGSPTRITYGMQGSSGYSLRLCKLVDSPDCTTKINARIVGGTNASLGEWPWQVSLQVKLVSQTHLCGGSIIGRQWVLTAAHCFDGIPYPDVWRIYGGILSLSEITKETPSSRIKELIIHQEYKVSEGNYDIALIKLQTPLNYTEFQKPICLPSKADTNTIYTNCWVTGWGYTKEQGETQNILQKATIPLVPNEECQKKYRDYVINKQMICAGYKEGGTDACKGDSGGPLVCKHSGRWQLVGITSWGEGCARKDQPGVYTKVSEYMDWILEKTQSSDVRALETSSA
For [Nva]CEP[Phg]CR[Tle]-NH2 (linker 2-6 via mXylyl) [R2030], the “Mouse Kallikrein IC50” value came out at 63.9 nM.
The same measure, in the same setting: under MCE[NMeS]ICRV-NH2 (linker 2-6 via mXylyl) [R2019] stands 85.6 nM; under MCESICR[Tle]-NH2 (linker 2-6 via mXylyl) [R2010], 38.8 nM; under MCES[Phg]CRV-NH2 (linker 2-6 via mXylyl) [R2012], 11.3 nM.
Regarding MCESICRV-NH2 (linker 2-6 via mXylyl) [R2006], the “Mouse Kallikrein IC50” value came out at 42 nM.
Still for that read-out and setting: under Ac-CESICRV-NH2 (linker 1-5 via mXylyl) [R2023] stands 47.3 nM.

A further test addresses Factor Xa (Enzyme Research Laboratories) (human, UniProt P00742 41-488, limits assumed). The test is described as follows: cell-based or functional assay.
As for [Nva]CEP[Phg]CR[Tle]-NH2 (linker 2-6 via mXylyl) [R2030], the “Factor Xa IC50” value was > 100000 nM.
Turning to MCE[NMeS]ICRV-NH2 (linker 2-6 via mXylyl) [R2019], the “Factor Xa IC50” value was > 10000 nM.
On the same count and under the same terms, then MCESICR[Tle]-NH2 (linker 2-6 via mXylyl) [R2010], with > 100000 nM; and MCESICRV-NH2 (linker 2-6 via mXylyl) [R2006], with > 7000 nM; and Ac-CESICRV-NH2 (linker 1-5 via mXylyl) [R2023], with > 7000 nM.

Another test concerns the target Factor XIa (Enzyme Research Laboratories) (human, UniProt P03951 19-625). Briefly: cell-based or functional assay.
For [Nva]CEP[Phg]CR[Tle]-NH2 (linker 2-6 via mXylyl) [R2030], the “Factor XIa IC50” value is > 10400 nM.
The same measure, in the same setting: under MCE[NMeS]ICRV-NH2 (linker 2-6 via mXylyl) [R2019] stands > 9100 nM; under MCESICR[Tle]-NH2 (linker 2-6 via mXylyl) [R2010], > 15000 nM.
For the molecule MCES[Phg]CRV-NH2 (linker 2-6 via mXylyl) [R2012], the “Factor XIa IC50” value is > 8300 nM.
As to MCESICRV-NH2 (linker 2-6 via mXylyl) [R2006], the “Factor XIa IC50” value is > 11600 nM.
Still for that read-out and setting: then Ac-CESICRV-NH2 (linker 1-5 via mXylyl) [R2023], with > 12100 nM.

The target of another test is T4, Activated human plasma kallikrein …. The test is described as follows: cell-based or functional assay. The source holds these as a separate data set.
As to Ac-CNYW[NMeS]PWTAC-NH2 (cysteine pairing not given here) [R2237], the “Avg. IC50” value is > 13900 nM.
For Ac-CNYWSP[dW]TAC-NH2 (cysteine pairing not given here) [R2228], the “Avg. IC50” value is > 10600 nM.
On the same count and under the same terms, then Ac-CNYWSPWT[dA]C-NH2 (cysteine pairing not given here) [R2226], with 222 nM; and Ac-CN[dY]WSPWTAC-NH2 (cysteine pairing not given here) [R2232], with > 1950 nM; and Ac-CN[NMeY]W[NMeS]PW[NMeT]AC-NH2 (disulfide 1-10) [R2224], with > 100000 nM.
Same read-out and setting: under Ac-CNYW[dS]PWTAC-NH2 (cysteine pairing not given here) [R2230] stands > 6580 nM.
The same measure, in the same setting: then Ac-CNYWSPWT[NMeA]C-NH2 (cysteine pairing not given here) [R2234], with 2.7 nM.
On to CNYWSPWTAA (also: Cyclo(1,10): ring between residues 1 and 10, bond kind not given here) [R2222], for which the “Avg. IC50” value amounted to 926 nM.
On to Ac-C[dN]YWSPWTAC-NH2 (cysteine pairing not given here) [R2233], for which the “Avg. IC50” value was 305 nM.
Ac-CNYWSPW[dT]AC-NH2 (cysteine pairing not given here) [R2227]: the “Avg. IC50” value came out at 323 nM.
On to Ac-CNY[NMeW]SPWTAC-NH2 (cysteine pairing not given here) [R2238], for which the “Avg. IC50” value was > 4520 nM.
Same read-out and setting: then Ac-CNYWS[dP]WTAC-NH2 (cysteine pairing not given here) [R2229], with > 14300 nM; and Ac-CN[NMeY]WSPWTAC-NH2 (cysteine pairing not given here) [R2239], with > 12500 nM; and Ac-CNYWSPW[NMeT]AC-NH2 (cysteine pairing not given here) [R2235], with 101 nM.
Still for that read-out and setting: then Ac-CNYWSP[NMeW]TAC-NH2 (cysteine pairing not given here) [R2236], with > 4900 nM; and Ac-CN[NMeY]W[NMeS]PW[NMeT]AC-NH2 (linker 1-10 via mXylyl) [R2223], with > 100000 nM; and Ac-CNYWSPWTA[dC]-NH2 (cysteine pairing not given here) [R2225], with 8.1 nM.
Still for that read-out and setting: then Ac-CNY[dW]SPWTAC-NH2 (cysteine pairing not given here) [R2231], with 760 nM.

The target in a further test is thrombin (Enzyme Research Laboratories) (human, UniProt P00734 328-622). The test is described as follows: cell-based or functional assay.
As for [Nva]CEP[Phg]CR[Tle]-NH2 (linker 2-6 via mXylyl) [R2030], the “Thrombin IC50” value is > 100000 nM.
The same measure, in the same setting: under MCE[NMeS]ICRV-NH2 (linker 2-6 via mXylyl) [R2019] stands > 100000 nM; under MCESICR[Tle]-NH2 (linker 2-6 via mXylyl) [R2010], > 100000 nM.
The same measure, in the same setting: then MCESICRV-NH2 (linker 2-6 via mXylyl) [R2006], with > 100000 nM.
The same measure, in the same setting: then Ac-CESICRV-NH2 (linker 1-5 via mXylyl) [R2023], with > 100000 nM.

The target of the next test is T2, Factor XIIa (Enzyme Research …). Briefly: cell-based or functional assay.
In the case of [Nva]CEP[Phg]CR[Tle]-NH2 (linker 2-6 via mXylyl) [R2030], the “Factor XIIa IC50” value is > 100000 nM.
Still for that read-out and setting: under MCE[NMeS]ICRV-NH2 (linker 2-6 via mXylyl) [R2019] stands > 12500 nM.
As for MCESICR[Tle]-NH2 (linker 2-6 via mXylyl) [R2010], the “Factor XIIa IC50” value was > 100000 nM.
The same measure, in the same setting: then MCESICRV-NH2 (linker 2-6 via mXylyl) [R2006], with > 100000 nM.
Same read-out and setting: then Ac-CESICRV-NH2 (linker 1-5 via mXylyl) [R2023], with > 100000 nM.

In a further test the target is plasmin (Enzyme Research Laboratories) (human, UniProt P00747 97-810, limits assumed). The test is described as follows: cell-based or functional assay.
plasmin (Enzyme Research Laboratories), sequence (P00747 97-810 limits assumed): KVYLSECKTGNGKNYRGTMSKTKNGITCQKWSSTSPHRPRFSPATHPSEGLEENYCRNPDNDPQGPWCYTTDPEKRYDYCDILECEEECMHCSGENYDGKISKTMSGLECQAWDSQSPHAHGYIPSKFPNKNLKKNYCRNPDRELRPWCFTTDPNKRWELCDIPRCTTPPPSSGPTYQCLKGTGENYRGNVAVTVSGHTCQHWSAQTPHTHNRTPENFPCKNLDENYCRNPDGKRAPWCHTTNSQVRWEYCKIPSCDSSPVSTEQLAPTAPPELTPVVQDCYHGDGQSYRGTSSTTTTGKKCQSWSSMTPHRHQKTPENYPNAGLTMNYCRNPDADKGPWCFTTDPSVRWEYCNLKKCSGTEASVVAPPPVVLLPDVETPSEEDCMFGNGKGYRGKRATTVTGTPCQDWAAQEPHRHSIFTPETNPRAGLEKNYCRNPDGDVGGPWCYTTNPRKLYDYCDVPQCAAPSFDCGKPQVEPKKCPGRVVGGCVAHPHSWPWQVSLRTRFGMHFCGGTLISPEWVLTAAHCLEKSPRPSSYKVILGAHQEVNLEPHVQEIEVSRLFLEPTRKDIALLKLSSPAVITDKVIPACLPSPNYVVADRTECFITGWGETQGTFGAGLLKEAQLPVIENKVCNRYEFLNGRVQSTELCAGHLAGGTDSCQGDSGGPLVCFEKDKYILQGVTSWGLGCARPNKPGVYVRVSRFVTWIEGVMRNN
For [Nva]CEP[Phg]CR[Tle]-NH2 (linker 2-6 via mXylyl) [R2030], the “Plasmin IC50” value was > 100000 nM.
Same read-out and setting: then MCE[NMeS]ICRV-NH2 (linker 2-6 via mXylyl) [R2019], with > 21000 nM; and MCESICR[Tle]-NH2 (linker 2-6 via mXylyl) [R2010], with > 100000 nM.
Still for that read-out and setting: under MCESICRV-NH2 (linker 2-6 via mXylyl) [R2006] stands > 100000 nM; under Ac-CESICRV-NH2 (linker 1-5 via mXylyl) [R2023], > 100000 nM.

Another test deals with T3, tissue kallikrein KLK13 (R&D Systems). Briefly: cell-based or functional assay.
In the case of [Nva]CEP[Phg]CR[Tle]-NH2 (linker 2-6 via mXylyl) [R2030], the “KLK13 IC50” value is > 100000 nM.
Regarding MCE[NMeS]ICRV-NH2 (linker 2-6 via mXylyl) [R2019], the “KLK13 IC50” value is > 16400 nM.
The same measure, in the same setting: then MCESICR[Tle]-NH2 (linker 2-6 via mXylyl) [R2010], with > 100000 nM.
The same measure, in the same setting: then MCES[Phg]CRV-NH2 (linker 2-6 via mXylyl) [R2012], with > 100000 nM; and MCESICRV-NH2 (linker 2-6 via mXylyl) [R2006], with > 100000 nM; and Ac-CESICRV-NH2 (linker 1-5 via mXylyl) [R2023], with > 100000 nM.

For a further test, the target named is T4, Activated human plasma kallikrein …. The test is described as follows: cell-based or functional assay. The source holds these as a separate data set.
[Nva]CEP[Phg]CR[Tle]-NH2 (linker 2-6 via mXylyl) [R2030]: the “Avg. IC50” value was 25 nM.
The same measure, in the same setting: under MCE[NMeS]ICRV-NH2 (linker 2-6 via mXylyl) [R2019] stands 52.3 nM.
Still for that read-out and setting: then MCESICR[Tle]-NH2 (linker 2-6 via mXylyl) [R2010], with 9.9 nM; and MCES[Phg]CRV-NH2 (linker 2-6 via mXylyl) [R2012], with 8.3 nM.
Still for that read-out and setting: then MCESICRV-NH2 (linker 2-6 via mXylyl) [R2006], with 11.8 nM.
On to Ac-CESICRV-NH2 (linker 1-5 via mXylyl) [R2023], for which the “Avg. IC50” value was found to be 19 nM.
